Assay [1] concerns the target T1, MED15-ABD3 (human, UniProt Q96RN5-2 453-561).
T1 sequence (looked up): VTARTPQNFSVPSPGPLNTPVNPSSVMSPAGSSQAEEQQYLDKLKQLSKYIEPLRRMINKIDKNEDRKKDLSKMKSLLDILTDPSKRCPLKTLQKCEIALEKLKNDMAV
Put plainly: SPR. In general terms: Surface plasmon resonance follows binding to a sensor surface in real time, without labels.

The target in another assay is T2, TAFH (human, UniProt O00268 582-678).
T2 sequence (looked up): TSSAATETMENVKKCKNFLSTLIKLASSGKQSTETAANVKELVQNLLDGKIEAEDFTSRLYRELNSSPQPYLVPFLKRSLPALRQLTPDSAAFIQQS
Put plainly: NMR titration.

Assay [2] concerns the target T1, MED15-ABD3. The experiment in a line: NMR titration.

B1: YAP-TAD (domain or fragment, human, UniProt P46937 450-504, looked up)
chain: GTNVDLGTLEGDGMNIEGEELMPSLQEALSSDILNDMESVLAATKLDKESFLTWL
In general, Kd refers to the constant that tells how readily two partners part at equilibrium. Read a high Kd as a looser complex. B1 returned a Kd in the assay with MED15-ABD3 [1] of 160 ± 54.3 nM.
Take FLTWL [FLTWL pentapeptide]: the binding result in the assay with TAFH and with MED15-ABD3 [2] was “binds” in each case.
SDILNDMESVLAATK [α-helix-based peptide SDILNDMESVLAATK]: the binding result with TAFH is “binds”.
